Target: T1, 5C.C7 TCR (as measured by surface plasmon resonance) (mouse)
T1 construct: Kept apart from the TCR on cells because the SPR construct is not described
Assay: SPR

Kd: 22.9 µM
t1/2: 5.77 s
B1: MCC-I-Ek (peptide-MHC)
chain 1: ANERADLIAYLKQATK
chain 2: IKEEHTIIQAEFYLLPDKRGEFMFDFDGDEIFHVDIEKSETIWRLEEFAKFASFEAQGALANIAVDKANLDVMKERSNNTPDANVAPEVTVLSRSPVNLGEPNILICFIDKFSPPVVNVTWLRNGRPVTEGVSETVFLPRDDHLFRKFHYLTFLPSTDDFYDCEVDHWGLEEPLRKHWEFEEKTLLPETKE
chain 3: VRDSRPWFLEYCKSECHFYNGTQRVRLLVRYFYNLEENLRFDSDVGEFRAVTELGRPDAENWNSQPEFLEQKRAEVDTVCRHNYEIFDNFLVPRRVEPTVTVYPTKTQPLEHHNLLVCSVSDFYPGNIEVRWFRNGKEEKTGIVSTGLVRNGDWTFQTLVMLETVPQSGEVYTCQVEHPSLTDPVTVEWKAQSTSAQNK
